In PMC11294680 one finds stoichiometry N data, which are given here for one substance.

The test addresses human BKCa channel α-subunit (hSlo1), residues 1-1,114 (human). Nature of the test: cryo-EM structure; purified tetrameric channel (5.5 mg/ml, 44 μM) in 20 mM Tris-HCl pH 8.0, 450 mM KCl, 10 mM CaCl2, 10 mM MgCl2, 0.01% glyco-diosgenin, POPE/POPC/POPA, mixed with 1 mM CTIBD on ice for 30 min; C1 and C4 symmetry.

With “human BKCa channel α-subunit (hSlo1), residues 1-1,114 (natural protein)”, the stoichiometry N (as a rule, the number of molecules, sites or subunits per partner or assembly) is 4.
